Numbering of substitutions follows the chain as printed.
B1: 2-AP(+T) T-bulge duplex (dsDNA)
DNA 1: TAAAGGAAGTCGTCTATATATGGTATGACTAAGTGTA
DNA 2: TACACTTAGTCATACCATTATAGACGACTTCCTTTA
modifications: 2-aminopurine at position 18 of strand 1 (written as A)
B2: Bacillus subtilis processivity clamp DnaN (natural protein, B. subtilis, UniProt P05649 1-378, looked up)
chain: MKFTIQKDRLVESVQDVLKAVSSRTTIPILTGIKIVASDDGVSFTGSDSDISIESFIPKEEGDKEIVTIEQPGSIVLQARFFSEIVKKLPMATVEIEVQNQYLTIIRSGKAEFNLNGLDADEYPHLPQIEEHHAIQIPTDLLKNLIRQTVFAVSTSETRPILTGVNWKVEQSELLCTATDSHRLALRKAKLDIPEDRSYNVVIPGKSLTELSKILDDNQELVDIVITETQVLFKAKNVLFFSRLLDGNYPDTTSLIPQDSKTEIIVNTKEFLQAIDRASLLAREGRNNVVKLSAKPAESIEISSNSPEIGKVVEAIVADQIEGEELNISFSPKYMLDALKVLEGAEIRVSFTGAMRPFLIRTPNDETIVQLILPVRTY

What was measured:
[1] = target: T1, MutS (Bacillus subtilis, UniProt P49849 1-858); test: 2-aminopurine fluorescence titration
T1 sequence: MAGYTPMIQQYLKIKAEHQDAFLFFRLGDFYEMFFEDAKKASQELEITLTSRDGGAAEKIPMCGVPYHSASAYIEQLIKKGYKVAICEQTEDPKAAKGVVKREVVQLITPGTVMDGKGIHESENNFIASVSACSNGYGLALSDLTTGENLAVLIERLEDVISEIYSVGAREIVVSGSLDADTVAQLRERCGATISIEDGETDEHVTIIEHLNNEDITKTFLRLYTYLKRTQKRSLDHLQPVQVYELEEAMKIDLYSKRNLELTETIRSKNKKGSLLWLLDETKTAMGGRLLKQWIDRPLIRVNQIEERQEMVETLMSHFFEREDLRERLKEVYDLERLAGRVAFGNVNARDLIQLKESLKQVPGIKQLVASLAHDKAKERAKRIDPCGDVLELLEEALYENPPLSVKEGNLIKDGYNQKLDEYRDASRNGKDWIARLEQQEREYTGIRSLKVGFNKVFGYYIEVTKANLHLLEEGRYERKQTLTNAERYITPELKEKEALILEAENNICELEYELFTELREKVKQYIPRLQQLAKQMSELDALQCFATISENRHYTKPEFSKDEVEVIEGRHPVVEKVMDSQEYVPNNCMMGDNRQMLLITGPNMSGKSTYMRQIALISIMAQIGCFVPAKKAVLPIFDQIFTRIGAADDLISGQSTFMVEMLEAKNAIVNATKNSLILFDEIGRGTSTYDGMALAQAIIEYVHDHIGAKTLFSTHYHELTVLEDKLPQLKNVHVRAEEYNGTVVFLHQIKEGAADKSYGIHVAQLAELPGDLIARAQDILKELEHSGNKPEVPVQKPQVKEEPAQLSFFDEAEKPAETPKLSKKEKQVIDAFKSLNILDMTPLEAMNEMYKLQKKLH

[2] = target: T2, Bacillus subtilis MutSF30A (B. subtilis, UniProt P49849 1-858, F30A); test: far-Western, overlay or dot blot
T2 sequence (looked up): T1 sequence with F30A

[3] = target: T3, Bacillus subtilis MutS (B. subtilis, UniProt P49849 1-858); test: far-Western, overlay or dot blot
T3 sequence (looked up): T1 sequence

Row | Binder | Kd [1] [nM] | binding result [2] | binding result [3]
1 | B1 | 24 | – | –
2 | B2 | – | binds | binds
